Drawing on the RNAGym collection of RNA variant scans (doi:10.1093/nar/gkz1192), this text covers self-cleavage for 34 variants.

The labels stand for the following.
B1: CPEB3 Ribozyme (parent)
chain: UAACAGGGGGCCACAGCAGAAGCGUUCACGUCGCAGCCCCUGUCAGAUUCUGGUGAAUCUGCGAAUUCUGCUGUAUAUCUC

This data set covers variants of B1. The data set can be described thus: self-cleavage, relative activity (ratio to wild type); higher = more cleavage; in vitro, sequencing. Summed up: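 Libraries of CPEB3 self-cleaving ribozyme mutants came from rounds of error-prone PCR and carried barcodes, which DNA sequencing matched to variants. In vitro transcription used T7 RNA polymerase at 37°C for 5 hours, with a further 15 min in DNase I before EDTA stopped the reaction; the ribozymes cleaved during both steps. The RNA was reverse transcribed with template switching and sequenced on Illumina. Relative activity is the cleaved/total read fraction of a variant divided by that of the unmutated ribozyme, averaged over three batches with at least 5 reads.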
On to UAACUGGGGGCCACAGCAGAAGCGUUCACGUCGCAGCCUCUGUCAGAUUCUGGUGAAUCUGCGAAUUCUGCUGUAUAUCUC, for which the self-cleavage is 0.95. With UAACUGGGGGCCACAGCAGAAGCGUUCACGUCGCAGCCCCUGUCAGAUUCUGGUGAAUCUGCGAAUUCUGCUGUAUGUCUC the figure was 1.09; with UAACUGGGGGCCACAGCAGAAGCGUUCACGUCGCAGCCCCUGUCAGAUUCUGGUGAAUCUGCGAAUUCUGCUGUAUUUCUC, 1.16.

As for UAACUGGGGGCCACAGGAGAAGCGUUCACGUCGCAGCCCCUGUCAGAUUCUGGUGAAUCUGCGAAUUCUGCUGUAUAUCUC, the self-cleavage came to 0.26. In the case of UAACUGGGGGCCACAGUAGAAGCGUUCACGUCGCAGCCCCUGUCAGAUUCUGGUGAAUCUGCGAAUUCUGCUGUAUAUCUC it was 0.73. In the case of UAACUGGGGGGCACAGCAGAAGCGUUCACGUCGCAGCCCCUGUCAGAUUCUGGUGAAUCUGCGAAUUCUGCUGUAUAUCUC it was 0.5. With UAACUGGGGGCCACAGCAGAAGCGUUCACGUAGCAGCCCCUGUCAGAUUCUGGUGAAUCUGCGAAUUCUGCUGUAUAUCUC the figure was 0.32; with UAACUGGGGGCCACAGCAGAAGCGUUCACGUGGCAGCCCCUGUCAGAUUCUGGUGAAUCUGCGAAUUCUGCUGUAUAUCUC, 0.16. On to UAACUGGGGGCCACAGCAGAAGCGUUCACGUUGCAGCCCCUGUCAGAUUCUGGUGAAUCUGCGAAUUCUGCUGUAUAUCUC, for which the self-cleavage amounted to 0.31.

In the case of UAACUGGGGGCCACAGCAGAAGCGUUCACGUCGCAGCCCCUGUCAGAUUCUGGUGAAUCUGCGAAUUCUGCUGUAUAUCUC, the self-cleavage was 1.04. With UAACUGGGGGCCAUAGCAGAAGCGUUCACGUCGCAGCCCCUGUCAGAUUCUGGUGAAUCUGCGAAUUCUGCUGUAUAUCUC the figure was 0.88.

Regarding UAACUGGGGGCCAAAGCAGAAGCGUUCACGUCGCAGCCCCUGUCAGAUUCUGGUGAAUCUGCGAAUUCUGCUGUAUAUCUC, the self-cleavage is 1.19. Regarding UAACUGGGGGCCACAGCAGAAGCGUUCACGUCGCAGCACCUGUCAGAUUCUGGUGAAUCUGCGAAUUCUGCUGUAUAUCUC, the self-cleavage was found to be 0.34. In the case of UAACUGGGGGCCACAGCAGAAGCGUUCACGUCGCAGCCCCUGUCAGAUUCUGGUGACUCUGCGAAUUCUGCUGUAUAUCUC it was 0.7; in that of UAACUGGGGGCCACAGCAGAAGCGUUCACGUCGCAGCCCCUGUCAGAUUCUGGUGAUUCUGCGAAUUCUGCUGUAUAUCUC, 0.67. As to UAACUGGGGGCCACAGCAGAAGCGUUCACGUCGCAGCCCCUGUCAGAUUCUGGUGAGUCUGCGAAUUCUGCUGUAUAUCUC, the self-cleavage was found to be 0.97. With UAACUGGGGGCCACAGCAGAAGCGUUCACGUCGCAGCCCCUGUCAGAUUCUGGUGAAUCUGCGCAUUCUGCUGUAUAUCUC the figure was 0.32; with UAACUGGGGGCCACAGCAGAAGCGUUCACGUCGCAGCCCCUGUCAGAUUCUGGUGAAUCUGCGGAUUCUGCUGUAUAUCUC, 1.03; with UAACUGGGGGCCACAGCAGAAGCGUUCACGUCGCAGCCCCUGUCAGAUUCUGGUGAAUCUGCGUAUUCUGCUGUAUAUCUC, 0.44.

As to UAACUGGGGGCCACAGCAGAAGCGUUCACGUCGCAGCCCAUGUCAGAUUCUGGUGAAUCUGCGAAUUCUGCUGUAUAUCUC, the self-cleavage worked out at 0.09. In the case of UAACUGGGGGCCACAGCAGAAGCGUUCACGUCGCAGCCCUUGUCAGAUUCUGGUGAAUCUGCGAAUUCUGCUGUAUAUCUC it was 0.78; in that of UAACUGGGGGCCACAGCAGAAGCGUUCGCGUCGCAGCCCCUGUCAGAUUCUGGUGAAUCUGCGAAUUCUGCUGUAUAUCUC, 0.83.

On to UAACUGGGGGCCACAGCAGAAGCGUUCUCGUCGCAGCCCCUGUCAGAUUCUGGUGAAUCUGCGAAUUCUGCUGUAUAUCUC, for which the self-cleavage amounted to 1.12. With UAACUGGGGGCCACAGCAGAAGCGUUCCCGUCGCAGCCCCUGUCAGAUUCUGGUGAAUCUGCGAAUUCUGCUGUAUAUCUC the figure was 0.77. In the case of UAACUGGGGGCCACAGCAGAAGCGUUCACGUCGCAGCCCCUGUCUGAUUCUGGUGAAUCUGCGAAUUCUGCUGUAUAUCUC it was 0.54; in that of UAACUGGGGGCCACAGCAGAAGCGUUCACGUCGCAGCCCCUGUCGGAUUCUGGUGAAUCUGCGAAUUCUGCUGUAUAUCUC, 1.02; in that of UAACUGGGGGCCACAGCAGAAGCGUUCACGUCGCAGCCCCUGUCAGAUUAUGGUGAAUCUGCGAAUUCUGCUGUAUAUCUC, 1.01. For the variant UAACUGGGGGCCACAGCAGAAGCGUUCACGUCGCAGCCCCUGUCAGAUUCUGGUGAAUCUGCGAAUUCUGCUGUGUAUCUC, the self-cleavage was 0.95. With UAACUGGGGGCCACAGCUGAAGCGUUCACGUCGCAGCCCCUGUCAGAUUCUGGUGAAUCUGCGAAUUCUGCUGUAUAUCUC the figure was 0.34; with UAACUGGGGGCCACAGCGGAAGCGUUCACGUCGCAGCCCCUGUCAGAUUCUGGUGAAUCUGCGAAUUCUGCUGUAUAUCUC, 0.87; with UAACGGGGGGCCACAGCAGAAGCGUUCACGUCGCAGCCCCUGUCAGAUUCUGGUGAAUCUGCGAAUUCUGCUGUAGAUCUC, 0.6. With UAACGGGGGGCCACAGCAGAAGCGUUCACGUCGCAGCCCCUGUCAGAUUCUGGUGAAUCUGCGAAUUCUGCUGUACAUCUC the figure was 0.76; with UAACUGGGGGCCACAGCAGAAGCGUUGACGUCGCAGCCCCUGUCAGAUUCUGGUGAAUCUGCGAAUUCUGCUGUAUAUCUC, 0.21. As for UAACUGGGGGCCACAGCAGAAGCGUUUACGUCGCAGCCCCUGUCAGAUUCUGGUGAAUCUGCGAAUUCUGCUGUAUAUCUC, the self-cleavage is 0.22.
